Assay results: the DeepSol protein solubility set

Test: soluble on expression in E. coli; label from the status in PepcDB or PDB records

| Sequence | soluble on expression in E. coli |
| --- | --- |
| MLISERFGIKGRADAVRRGMPVELKTGKNLKRSPRFQDKVQAACYGLLLADDIADPPDTGTLLYTKNSALDRSEESGDLSPAKEFSIGPGFLKYVLRVRNEIAAAEYDMSVPTGFEADANCDYCFEQDTCMVVSGRLDQESKAGQLGEPLPEPERAYFERLYRAIEEERREVHAEYRKLWEQSAAERADDDRALVDLDPLGREPLDGGRWALSARRTSDAVSKIREGDRVLASDGHPTQGTAELATVRHLDDEIVVVADEPFELRRIDVYPSELGVDRQLEHHHHHH | soluble |
| MSLSSLGEELETKISEEVGFKPLGIKRILPAASTKLPFASLDNFAIDNHNNKYAAASGELLICGDLQKLREYVTNDNEEDNYEPEYKHEISNIIALKFMNGKLILVTKSGRICEYSTENLNQELMNHELKLDLVSVKTLPSKIIMLDSSNVLKGLSLSNLNLENIAENISSFDVLYDKLVYISVLKDIYVSDTISNGVNKEIILPESLSEELDDGYEALDIKILSENEYFVVFGNNVSPDESDPSYDHKTYVVSQKEESVVYQETFDIAPAFASVLRYPCYYNVILPGIFEEDKNVNIIGSATSSEISVWDSVNVVQPDQDSERAVFPISKETDEDTTPIGMCLDFSTVGEIPEPCPGVDNTDSLPLVYSLTNEGFLQINGFYHTGLIKAGKYDIKLLGERIYSIYEQDGGEVEEGHHHHHH | soluble |
| MHKYRLVAKKGEGTFSEVLKAQCIKNGKYVAIKCMKNHFDSLDQVNNLREIQALRRLSPHANIIKLLEVLYDQPTGRLALVFELMDMNIYELIRGRRHYVAEERIKNYMYQLMKSMDHMHRNGIFHRDIKPENILIMDDCLKLADFGSCRGIYSKQPYTEYISTRWYRAPECLLTDGYYNYKMDMWGVGCVFFEIVSLFPLFPGTNELDQITKIHNILGTPPPDLLAKMKKRSAHMDFNFPPKEGSGVAKLIPHVNPECVDLIVKLLMYNPDERLSARQALRHPYFRDLREAEKRQKALLAPDVSNHFTAMEADKARQQQTVSSTGSDHEHPTSAGGDGGAGTGAVGTHDGSAAAAAAAAALPSISGARGHAGPEGGHDNDMG | not soluble |
| GGSSRHQFDLIMCLKQPGVQTGLLCEKCDGKCPICDSYVRPKRKVRVCENCSFGKQAKNCIICNLNVGVNDAFYCWECCRLGKDKDGCPRILNLGSNRLDRHFEKKKKV | soluble |
| MPLTPADVHNVAFSKPPIGKRGYNEDEVDAFLDLVENELTRLIEENSDLRQRINELDQELAAGGGAGVTPQATQAIPAYEPEPGKPAPAAVSAGMNEEQALKAARVLSLAQDTADRLTNTAKAESDKMLADARANAEQILGEARHTADATVAEARQRADAMLADAQSRSEAQLRQAQEKADALQADAERKHSEIMGTINQQRAVLEGRLEQLRTFEREYRTRLKTYLESQLEELGQRGSAAPVDSNADAGGFDQFNRGKN | soluble |
| MLNQLDNLTERVRGSNKLVDRWLHVRKHLLVAYYNLVGIKPGKESYMRLNEKALDDFCQSLVDYLSAGHFSIYERILHKLEGNGQLARAAKIWPQLEANTQQIMDYYDSSLETAIDHDNYLEFQQVLSDIGEALEARFVLEDKLILLVLDAARVKHPA | soluble |
| MGSDKIHHHHHHVAVWNPWRGCHRYSEGCKFCYIHKGDMKRGMDTNLIVKSAKFNAPVAVNKQGHYIMKSGQLVYCCFSTDFLLEDADPWRDECWSMMKERPDLHFLFLTKRIERFSQCLPGDWGEGYENVTVGCTVENQHTADERLEIFSKLPIKHKNIALQPMLEAIDIEKYLEGIELVVVGGEYDRNARPFDYEWALAVREQCIRHQVSFSFRQCGTNFIQNGKLRRLNYGMLFKCARESNIDYQAGRE | not soluble |
| MSALDCPAGTVLFRAGQDCPGFLRLDEGSIRVTLTAANGREVVLYRVRPGDVCLQTFACLTEGRSYSAEGVAETRVRGHLMSHADFRTALARDEAFRTEVMQAVARRFADFEHLVEDVALTGFDTRLARVLLRLAKGDTVAATHEALAAETASGRAFVSRRLAEFARQGLVELARGRVTLCDRSGLERIAAEER | not soluble |
| SLLLAKHPVISVNGNTAVLVPEETRKLAELVNAKVEINVFHHSPERVEKIKRYLEKHGIEVLAAGDAVLEGLESARRIVDSRGILIADVVLVPLEDGDRCEILKRHGKKVIAIDLNPLSRTARMADITIVDNIIRAFPKMVEMAEEMRKWERERLKEVVENYDNSKVLAEAVEGIIQYLQKVKGELLSP | soluble |
| MKVERVERVEDIDFEGLLKEGYTCFFFDFDNTLVPWKESKLEESKRRLLIELAKKARVVVVSNGKPRKVDLPVMFIWRAGKPFSLKLWRFLKKEKIDPKRCVMIGDQIFTDVLTGKIFGFRVIKVEPISAKEFFGTKILRFFEKILEGKVR | not soluble |
| MDHALFTHFVGRPRHCRLEMLILDEQVSKRSWDTTVYHRRRKHLPRRRAPCGPQRPAEIPKRRKKAAVLLFWHDLCWLFRRLFFPREDSEPLMSDPARSPEEEELEHHHHHH | not soluble |
| MTLPPTSIADRIARAQPAFSRTQHRMAEYVLAHQFRVATMTIDEFAVAVGVSVATANRFARVLELPGYPQFRAELARGFESALEPVEKLRIELAHSASAAQVFAATLQEDIHNAQMTLQALDAGACERAVEAILNAERVFIIGFGTSGFLAGLLQRGLCMHLHAVESLAGPGGVSHAARQMSRMTSRDLVIALAFPRYLADTVTLANAAKLAGVPVLVLTDKPTSPLAPCATVALYAHMSRQLSSNAETAALGLIEALSAAVAHRAKNSIAAAAGVAQSVMPWLIHGEAGAGKR | not soluble |
| SLDSNESKLKQKSPAEFFAENKNIAGFDNPGKSLYTTVRELVENALDSAESIEG | soluble |
| NVPELIGAQAHAVNVILDAETAYPNLIFSDDLKSVRLGNKWERLPDGPQRFDSCIIVLGSPSFLSGRRYWEVEVGDKTAWILGACKTSISRKGNMTLSPENGYWVVIMMKENEYQASSVPPTRLLIKEPPKRVGIFVDYRVGSISFYNVTARSHIYTFASCSFSGPLQPIFSPGTRDGGKNTAPLTICPVG | soluble |
| MITHAQTILCLDLGSKTGWAICGADGHIFSGVMNFQPRRFEGGGMRYLRFKQWLTEMKMTARRIDAVYFEEVRRHVGTDAAHVYGGLLATLTAWCEHHQIPYEGIPVGTIKKETTGKGNASKEEMIKAVCAKGHAPKDDNEADALAILYLMKEGGVYVQ | not soluble |
| MNTGHHKVADTLIDFLHRQFPWVESKKIDFLSYCNELMEKMVSGAYLRWIRSHPASYHRVYKTFMYEESLRLEFVSFEPWLPYFEGKMKKMLEQERPDLIVCTHSFPSRILQQLKRKKVLAIPVVNVYTDFFMNSIWGKRFIDYHFVPHQEAKRELIVKHGIDERRIVVTGIPAAALEHHHHHH | soluble |
| MSLSTPIQAEPPNLSLIRKEIKNYYDSGLYYHELERTIKLAQEYIHQQYLINKNNKHPQKLAIVLDIDETSLSNYDKMVKRDFTGSKEQIHKEILAANSPAIKPMLTLYKNALKQGIKVFFVTGRQESERDATRANLIKAGYTKWAGLYLRPNGYSSPSIIPFKSKAREMIAKKGYTIIASIGDQCSDIQGGYTKKGFKLPNPFYYLPEGHHHHHH | soluble |
| MSLKNIVFDIGNVLLKFTPVEFLKSKYKDDKLVEALYENVFKSNEWVELDRGTITEEEATCRFCKRDPHNAKYIREVMETWNEMHVPVEGTSELMKELREKGYKIYLLSNYHLKAFKLISDKYDFIRDVDGGIISSKVKLLKPELEIYKALTNSCGIKPEESIFIDDREENVEAAIKLGFNGIVFKDAYELKGKFDELGIAIEGHHHHHH | soluble |
| MTSIAISSGSFDPITLGHLDIIKRGAKVFDEVYVVVLNNSSKKPFFSVEERLDLIREATKDIPNVKVDSHSGLLVEYAKMRNANAILRGLRAVSDFEYEMQITSMNRKLDENIETFFIMTNNQYSFLSSSIVKEVARYGGSVVDLVPPVVERALKEKFQTPLK | not soluble |
| MGSDKIHHHHHHMPKILKFNEEARRALERGVDKVANAVKVTLGPKGRNVVIEKSWGSPTITNDGVSIAKEIELEDKFENLGAQLVKEVASKTNDVAGDGTTTATVLAQAMIKEGLKNVAAGANPILLKRGIDKAVEKAVEEIKKVSKKLSGREDIAHVAAISANSAEIGELIAEAMDKVGEDGVITVEDSKTLETYVEFTEGMQFDRGYISPYFVTDAEKMEVVLKEPFILITDRKLSAVKPLIPILEKVAQTGKPLLVIAEDVEGEVLTTLVLNKLKGTLQSCAVKAPGFGERRKAMLQDIAILTGGQVASEELGINLEDLTLEDLGRADLVRVKKDETIIIGGKGDPEAIKKRIAQIKAQIEETTSEYEKETLQERMAKLAGGVAVIKVGAATETELKEKKHRIEDALSATRAAVEEGIVPGGGVTLLRARKAVEKVIEELEGDEKIGAQIVYKALSAPIKQIAENAGYDGAVIIEKILSNDDPAYGFDALRGEYCNMFERGIIDPAKVTRSALQNAASIAGMLLTTEVLIVEKPEEKKETPSMPEEF | not soluble |
| MGSDKIHHHHHHMASDIHTLSDSLLWKRFLEGDSSAYSQIYNQTVQELFRYGLLYTSDRELVKDCIHDVFVKIYTNRAKLTPTDNIIAYLMVALKNTLFNALKKTSDSFSLDEADEKEDQSEEHFSTPETIYINKEQEKNTHMKVHAMMSSLTTRQREIVYYRYIKDMSIDEISKITDMNYQSVSNSIQRALGRVRNLFKRE | not soluble |
| MPRWRSAVEGLMLNRVVEQLTAQLPARNLGWVFPDETTAALLLDGPDGQPLGNLVLGYRPPQPVLFLSRERLRGDPHNPFQRLLATRVRGELLKIEQFKLDRVVALHFGPAEGFIDQPPARLLFEVTGRNANLLVMEEGEGFAGRITLAAREITGSRNRFRTIRSGGPYTPPPPYDKFDPRTMTPADAQTLAGVPLSEWRGRVDGLGPMLSAELARRAEMRPSQAPGDDWERAYDALKSLVADPSVSEGTLSEGAREAARQEKAGALRKLLREPLEKRVTLLENQLGDVTRAEEGVEIAAQDRAEADLLMAYAQTVEPGAASALLPSFDGEGEVPVSLEPQLSAVQNAEKRYARARRRDEVYLRLAEREGSIRSELEAARERLHRLDHAELEQLEQLASDLEREKPERS | not soluble |
| MGAPLADILHALVLKIEDQRLGTHASVLLLSEDGKRVLTGAAPHLPDSYNQVIHGVEIGPEVGSCGTAAYTGQRVIVEDIEHHPYWALYKSFALVHGLRACWSEPIKDTQGKVLGTFAMYYKEIKSPTVADLTLIAEAARLASLAIERSRSLEFQRLAVKILEHHHHHH | soluble |
| MSLRQKQKEGGTYSPQDAEIIDTKLKLDQLITVADLELKDERLTRMTVMAATEKFQIMKKELPKFLQDLSSTDADLPWNRAKNRFPNIKPYNNNRVKLIADASVPGSDYINASYISGYLCPNEFIATQGPLPGTVGDFWRMVWETRAKTLVMLTQCFEKGRIRCHQYWPEDNKPVTVFGDIVITKLMEDVQIDWTIRDLKIERHGDCMTVRQCNFTAWPEHGVPENSAPLIHFVKLVRASRAHDTTPMIVHCSAGVGRTGVFIALDHLTQHINDHDFVDIYGLVAELRSERMCMVQNLAQYIFLHQCILDLLSNKGSNQPICFVNYSEGHHHHHH | soluble |
| MGHHHHHHSHKGLIDEITKKNIQLKKEIQKLETELQEATKEFQIKEDIPETKMKFLSVETPENDSQLSNISCSFQVSSKVPYEIQKGQALITFEKEEVAQNVVSMSKHHVQIKDVNLEVTAKPVPLNSGVRFQVYVEVSKMKINVTEIPDTLREDQMRDKLELSFSKFRNGGGEVDRVDYDRQSGSAVITFVEIGVADKILKKKEYPLYINQTCHRVTVSPYTEIHLKKYQIFSGTSKRTVLLTGMEGIQMDEEIVEDLINIHFQRAKNGGGEVDVVKCSLGQPHIAYFEE | not soluble |
